What was measured:
[1] = target: NIA–Isu1 complex with C. thermophilum Isu1 (S. cerevisiae | E. coli (endogenous in the expression host) | C. thermophilum) (UniProt P25374); assay: pull-down; competition: Yah1^GST (2.5 μM) with NIA (5 μM), with or without Isu1Sc or Isu1Ct (7.5 μM), then Yfh1 WT or DE/KK added (12.5 μM or increasing concentrations); glutathione resin; densitometry, amount without Yfh1 set as 100%; buffer PD
[2] = target: Yah1-GST fusion protein (S. cerevisiae) (UniProt Q12184); assay: pull-down; GST-tagged Yah1 bait (2.5 μM) incubated with NIA (5 μM or increasing) and/or Isu1 (7.5 μM) in buffer PD (40 mM Hepes–KOH pH 7.5, 5% glycerol, 100 mM KCl, 1 mM DTT, 10 mM MgCl2) 15 min at 25 °C; glutathione agarose 1 h at 4 °C; SDS-PAGE, InstantBlue, densitometry corrected for binding to GST; aerobic (Yah1 cluster oxidised)
Chain of Yah1-GST fusion protein (S. cerevisiae) (Q12184 17-172): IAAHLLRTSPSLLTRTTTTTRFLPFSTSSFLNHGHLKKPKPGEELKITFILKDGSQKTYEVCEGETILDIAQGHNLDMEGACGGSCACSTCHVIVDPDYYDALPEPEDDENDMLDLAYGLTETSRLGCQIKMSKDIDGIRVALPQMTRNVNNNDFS

percent of the control left pulled down with Yah1^GST at 5 μM Yfh1 [1] [%]	percent reduction of Nfs1, Isd11 and Isu1 pulled down with Yah1^GST at a fivefold excess of Yfh1 (12.5 μM) [1] [%]	binding as percent of the WT control [2] [%]	Substance
30	85	–	Yfh1 (frataxin) with a C-terminal polyhistidine tag (from UniProt Q07540 52-174) (natural protein)
–	–	30	NIA–Isu1 complex containing Nfs1(R313A, R316A, R318A), with Isu1Ct (from UniProt P25374 37-497; Q6Q560 1-94; P0A6A8 1-78)
–	–	20	NIA–Isu1 complex containing Nfs1(R313E, R316E, R318E), with Isu1Ct (from UniProt P25374 37-497; Q6Q560 1-94; P0A6A8 1-78)

Reference: paper PMC8888459
